Assay: yeast display, Sf9 membrane polyspecificity reagent, FACS + sequencing; frameworks hold sequencing errors
How it was run: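 A synthetic nanobody library was expressed on Saccharomyces cerevisiae BJ5465 by galactose induction for 36–48 hours. The library was stained for 1 hour at 4 °C with 10% biotinylated, detergent-solubilized Sf9 membrane reagent and enriched with streptavidin microbeads before FACS. Low and high (top ~1%) gates were set on anti-HA fluorescence for expression and streptavidin fluorescence for reagent binding, and each polyreactivity label reflects the gate of origin.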

| Sequence | polyreactivity (PSR sort gate) |
| --- | --- |
| QVQLLESGGGLVQPGGSLRLSCAASGSIFGLNAMGLYRQEPGKETELVAAISGGSTNYADSVKGRFTISRDNAKNTVYFQMISLKPEDTAVYYCAAPRTKYLSNYGFWGEGTQVTVSS | high polyreactivity |
| QVPLVESGGGLVQAGGSLRLICAASGRIFYRYAMVWYRQAPGKERELVATISRSGGSTNYADSVKGRFTISRDNAKNTVYLQMNSLKPEDTAVYYCNARYLSTRSGDYWGQGTQVTVSS | high polyreactivity |
| QVPLVESGGGLVHAGGSLRLSCAASGIILHDNTMGWYRQAPGKERELVAAITSDGSTNYADSVKGRFTISSDNAKNTVYLQMNSLKPEDTAVYYCNTDDGPYTEFDYWRQGTQVTVSS | low polyreactivity |
| QVQLVESGGGLDQAGGSLRLSCAASGRTFNPYVLGWYRQAPGKERELVAVITSSGDSTYYADSVKGRFTISRDNAKNTVYLQMNSLKPEDTAVYYCNADYLYYDYDYWGQGTQVTVSS | high polyreactivity |
| QVQLVESGGGLVQAGGSLRLSCAASGYTFTSNAMGWYRQAPGKERELVADISTGVDSTYYADSVKGRFTISRDNAKNTVYLQMNSLKPEDTAVYYCNADILVAWYDEPFDYWGQGTQVTVSS | low polyreactivity |
| QVQLVESGGGLVQAGGSLGLSCAASGFIVGYYTMGWDRQAPGKERELVAAISSSGGRTYDADSVKGRFTISRDKAKNTVYFQMNSLKPEDTAVYYCNADRTLRFGYGYCGQGTQVTVSS | low polyreactivity |
| QVQLVESGGGLVQAGGSLRLSCAASGFTFKINGKGWYRQAPGKEREFVATIRTSTGRTYYADSVKGRFTISRDNAKNTVYLQMNSLKPEDTAVYYCATDYLFERLLQEMDYWGQGTQVTVSS | high polyreactivity |
| QVQLVESGGGLVQAGGSLRLSCAASGSTFFVNAMGWYRQAPGKERELVASITVSSGRTYYADSVKGRFTISRDNAKNTVYLQMNSLKPEDTAVYYCAARHLYWRREGYYWGQGYQVTVSS | high polyreactivity |
| QVQLVESGGGLVQAGGSLRLSCAASGSTFTVNGMGWYRQAPGKERELVASITWSGGSTYYADTVKGRFTISRDNAKNTVYLQMNSLKPEDTAVYYCAADEKLYITGYDYWGQGTQVTVSS | low polyreactivity |
| QVQLVESGGGLVQAGGSLRLSCAASGRIFVNNAMGWYRQAPGKERELVAAITGRGTRTYYADSVKGRFTISRDNAKNTVYLQMNSLKPEDTADYYCNAVSTAVIGYEYDYWGQGTQVTVSS | high polyreactivity |
| QVQLVESGGGLVQAGGSLRLSCAASGFTFRLYAMGWYRQAPGKERELVAAISSRGTTTYYADSVKGRFTNSRDNAKKTGYLQMNSLKPEDTAVYNCNKEYTSYGYDLEYDYWGQGTQVTVSS | low polyreactivity |
| QVQLVESGGGLVQAGGSLRLSCASSGITLAGNAMGWYRQAPGKERELVAAISASGGRTSYADSVKGRFSISRDNAKNTVYLQKNSLKPEDTAVYYCNTRRYPTRPSYDYWGQGTQVTVSS | high polyreactivity |
| QVQLVESGGGLVQAGGSLRLSCAASGFTFYGYGMGWYRPAPGKERELVAVITSGGSTKYADSVKGRFTISRDNAKNTVYLQMNSLKPEDTAVYYCNVVGGRYLYSAYDYWGQGTQVTVSS | low polyreactivity |
| QVQLVESGGGLVQAGGSLRLSCAASGSTCASYAMGWYRQAPGKERELVAAITDSGGSTYYADSVKGRFTISRDNAKNTVYLQMNSLKPEDTAVYYCAAYGAYFSYHDYEYWGHGTQVTVSS | low polyreactivity |
| QVQLGESGGGLVQAGGSLRLSCASSGRTFVVNAMGWYSQAPGKATEFDAAISYRGDSTYYAVSVKGRFTISRDNAKNTVYLQMNSLKPEATAVYYCAARVLGPGRRYYYWGQCTQVTVSS | high polyreactivity |
| QVQLVESGGGLVQAGGSLRLSCAASGLTFDKYVMGWYRQAPGKERELVAAITKGGGSTYYADSVKGRFTISRDNAKNTVYLQMNSLKPEDTAVYYCAVTLPLRYWGQGTQVTVSS | high polyreactivity |
| QVQLVESGVGLVQAGGSLRLSCAASVRIFLFYAMGGYRQAPVKERELVAAITSGGSTYYADSVKGRFTMSRDNAKNTVYLQMNSLKPEDTAVYYCANYYWGQGTQVTVSS | low polyreactivity |

From the nanobody polyreactivity screen of Harvey et al. (2022)
